Test results published in PMC9986714.

Legend:
[1] = target: Fasciola hepatica cathepsin L3 (Fasciola hepatica)
[2] = target: Human cathepsin K (human) (UniProt P43235)
Cathepsin S (human) = Cathepsin S (human) (UniProt P25774)
[3] = target: Fasciola hepatica cathepsin L1 (Fasciola hepatica)
[4] = target: Human cathepsin L (human)
[5] = target: Fasciola hepatica cathepsin L2 (Fasciola hepatica)
[6] = target: Bovine cathepsin H (bovine)
[7] = target: Human cathepsin V (human) (UniProt O60911)
[8] = target: Carica papaya papain (Carica papaya) (UniProt P00784)
Chain of Carica papaya papain (Carica papaya) (P00784 134-345): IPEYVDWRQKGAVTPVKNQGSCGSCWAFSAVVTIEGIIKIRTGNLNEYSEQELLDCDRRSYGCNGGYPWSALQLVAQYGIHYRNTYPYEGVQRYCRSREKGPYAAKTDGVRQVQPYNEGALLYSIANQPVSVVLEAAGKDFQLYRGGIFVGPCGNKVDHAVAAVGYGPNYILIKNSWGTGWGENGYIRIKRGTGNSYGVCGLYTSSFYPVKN

[9] = target: Bovine cathepsin C (bovine)
Cathepsin X (human) = Cathepsin X (human) (UniProt Q9UBR2)
Chain of Cathepsin X (human) (Q9UBR2 62-303): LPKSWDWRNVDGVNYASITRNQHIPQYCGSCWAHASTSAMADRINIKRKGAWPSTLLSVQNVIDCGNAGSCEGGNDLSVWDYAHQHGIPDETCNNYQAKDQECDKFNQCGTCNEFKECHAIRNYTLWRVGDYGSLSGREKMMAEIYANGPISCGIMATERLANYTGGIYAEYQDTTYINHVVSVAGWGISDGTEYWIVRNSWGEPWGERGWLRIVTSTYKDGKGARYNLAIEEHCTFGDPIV

Cathepsin F (human) = Cathepsin F (human) (UniProt Q9UBX1)
Chain of Cathepsin F (human) (Q9UBX1 271-484): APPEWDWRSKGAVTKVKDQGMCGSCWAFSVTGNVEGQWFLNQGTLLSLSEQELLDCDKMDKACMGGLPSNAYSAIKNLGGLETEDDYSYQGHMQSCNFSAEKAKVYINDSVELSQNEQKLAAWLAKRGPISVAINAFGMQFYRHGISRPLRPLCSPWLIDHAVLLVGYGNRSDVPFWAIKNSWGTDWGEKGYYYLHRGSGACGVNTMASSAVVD

Chain of Human cathepsin K (human) (P43235 115-329): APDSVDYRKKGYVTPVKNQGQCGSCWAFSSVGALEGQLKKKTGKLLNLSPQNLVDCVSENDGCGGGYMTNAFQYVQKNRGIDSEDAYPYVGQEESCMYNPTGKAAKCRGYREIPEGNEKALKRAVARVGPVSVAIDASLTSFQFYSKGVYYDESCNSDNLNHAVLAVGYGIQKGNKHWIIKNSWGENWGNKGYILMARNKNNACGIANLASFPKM
Chain of Human cathepsin V (human) (O60911 114-334): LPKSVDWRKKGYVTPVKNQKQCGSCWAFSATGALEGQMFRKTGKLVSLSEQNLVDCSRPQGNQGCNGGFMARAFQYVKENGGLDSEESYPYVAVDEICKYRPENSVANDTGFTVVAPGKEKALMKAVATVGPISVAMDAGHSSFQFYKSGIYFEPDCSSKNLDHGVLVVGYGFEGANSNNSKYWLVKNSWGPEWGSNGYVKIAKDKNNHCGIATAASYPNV
Chain of Cathepsin S (human) (P25774 115-331): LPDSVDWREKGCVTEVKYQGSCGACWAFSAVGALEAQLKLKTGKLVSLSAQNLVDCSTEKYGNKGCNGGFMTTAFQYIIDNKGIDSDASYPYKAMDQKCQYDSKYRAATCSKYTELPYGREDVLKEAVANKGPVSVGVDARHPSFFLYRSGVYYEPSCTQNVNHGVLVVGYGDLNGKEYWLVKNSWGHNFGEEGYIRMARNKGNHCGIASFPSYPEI

Substance: Fasciola hepatica cystatin-like stefin 2 (FhCyLS-2), recombinant (natural protein)
- IC50 of inhibition of protease activity (kinetic assay, 20 μM Z-Gly-Pro-Arg-AMC, 6 nM FhCL3, 50 mM MES pH 5.5, 37 °C, 15 min preincubation) [1]: 18 nM
- IC50 of inhibition of protease activity (kinetic assay, 4.3 μM Z-Phe-Arg-AMC, 0.2 nM cathepsin K, 100 mM Na acetate pH 5.5, 37 °C, 15 min preincubation) [2]: 8.6 nM
- IC50 of inhibition of protease activity (kinetic assay, 17 μM Z-Val-Val-Arg-AMC, 0.1 nM cathepsin S, 50 mM MES pH 6.5, 37 °C, 15 min preincubation) (Cathepsin S (human)): 1.1 nM
- IC50 of inhibition of protease activity (kinetic assay, 20 μM Z-Phe-Arg-AMC, 2 nM FhCL1, 50 mM MES pH 5.5, 37 °C, 15 min preincubation) [3]: 2.5 nM
- IC50 of inhibition of protease activity (kinetic assay, 53 μM Z-Phe-Arg-AMC, 0.2 nM cathepsin B, 100 mM Na acetate pH 5.5, 37 °C, 15 min preincubation) (Cathepsin B (human)): 2.1 nM
- IC50 of inhibition of protease activity (kinetic assay, 2.5 μM Z-Phe-Arg-AMC, 0.2 nM cathepsin L, 100 mM Na acetate pH 5.5, 37 °C, 15 min preincubation) [4]: 0.92 nM
- IC50 of inhibition of protease activity (kinetic assay, 20 μM Z-Phe-Arg-AMC, 5 nM FhCL2, 50 mM MES pH 6.0, 37 °C, 15 min preincubation) [5]: 10 nM
- IC50 of inhibition of protease activity (kinetic assay, 100 μM H-Arg-AMC, 1.9 nM cathepsin H, 50 mM MES pH 6.5, 37 °C, 15 min preincubation) [6]: 2.5 nM
- IC50 of inhibition of protease activity (kinetic assay, 3.6 μM Z-Phe-Arg-AMC, 0.1 nM cathepsin V, 100 mM Na acetate pH 5.5, 37 °C, 15 min preincubation) [7]: 5.9 nM
- IC50 of inhibition of protease activity (kinetic assay, 100 μM Z-Phe-Arg-AMC, 0.5 nM papain, 100 mM Na acetate pH 5.5, 37 °C, 15 min preincubation) [8]: 1.1 nM
- IC50 of inhibition of protease activity (kinetic assay, 130 μM H-Gly-Arg-AMC, 0.4 nM cathepsin C, 100 mM Na acetate pH 5.5 with 50 mM NaCl, 37 °C, 15 min preincubation) [9]: 66 nM
- IC50 of inhibition of protease activity (kinetic assay, 87 μM Abz-Phe-Arg-Phe(NO2)-OH, 1.2 nM cathepsin X, 100 mM Na acetate pH 5.0, 37 °C, 15 min preincubation) (Cathepsin X (human)): 8.4 µM
- IC50 of inhibition of protease activity (kinetic assay, 27 μM Z-Phe-Arg-AMC, 1.2 nM cathepsin F, 100 mM Na acetate pH 5.5, 37 °C, 15 min preincubation) (Cathepsin F (human)): 49 nM
